{
  "source": "patent US20220411536A1",
  "about": "(NUMAB THERAPEUTICS, published 2022)",
  "binders": {"B1": {"name": "PRO830 (scFv, V domains shown)", "VH": "QVQLQESGPGLVKPSETLSLTCKVSGFSFSSGYDMCWIRQPPGKGLEWIGCVVAGSVDITYYASWAKGRVTISVDSSKNQFSLKLSSVTAADTAVYYCARKDAYSDAFNLWGQGTLVTVSS", "VL": "DIQMTQSPSSLSASVGDRVTITCQASQSINDYLAWYQQKPGKAPKLLIYKASTLASGVPSRFSGSGSGTDFTLTISSLQPEDFATYYCQQGYIITDIDNVFGTGTKVTVLG", "notes": "also called 33-03-G02; parental scFv"}, "B2": {"name": "PRO1089 (scFv, V domains shown)", "VH": "B1 VH with Y104A", "VL": "B1 VL", "notes": "also called 33-03-G02 VH-Y112A"}, "B3": {"name": "PRO1075 (scFv, V domains shown)", "VH": "B1 VH", "VL": "B1 VL with Q90A", "notes": "also called 33-03-G02 VL-Q108A"}, "B4": {"name": "PRO1546 (multispecific antibody)", "chain 1": "DIQMTQSPSSLSASVGDRVTITCQASENIYSFLAWYQQKPGKAPKLLIYSASKLAAGVPSRFSGSGSGTDFTLTISSLQPEDFATYYCQQTNRYSNPDIYNVFGTGTKVTVLGGGGGSGGGGSGGGGSGGGGSEVQLVESGGGLVQPGGSLRLSCAASGIDFNSNYYMCWVRQAPGKGLEWIGCIYVGSHVNTYYANWAKGRFTISRDNSKNTVYLQMNSLRAEDTAVYYCATSGSSVLYFKFWGQGTLVTVSSGGGGSGGGGSDVVMTQSPSSLSASVGDRVTITCQASQIISSRSAWYQQKPGQPPKLLIYQASKLASGVPSRFSGSGSGTDFTLTISSLQPEDFATYYCQCTYIDSNFGAFGCGTKLTVLGGGSGGSDIQMTQSPSSLSASVGDRVTITCQSSQSVFSNNYLAWFQQKPGQSPKRLIYSASTLASGVPSRFSGSGSGTDFTLTISSLQPEDFATYYCLGSYACSSADCYVFGTGTKVTVLG", "chain 2": "DIQMTQSPSSLSASVGDRVTITCQASQSINDYLAWYQQKPGKAPKLLIYKASTLASGVPSRFSGSGSGTDFTLTISSLQPEDFATYYCQAAYIITDIDNVFGTGTKVTVLGGGGGSGGGGSGGGGSGGGGSQVQLQESGPGLVKPSETLSLTCKVSGFSFSSGYDMCWIRQPPGKGLEWIGCVVAGSVDITYYASWAKGRVTISVDSSKNQFSLKLSSVTAADTAVYYCARKDAYSDAFNLWGQGTLVTVSSGGGGSGGGGSEVQLVESGGGLVQPGGSLRLSCAASGFSLSSYDMSWVRQAPGKGLAWIGASYASGPTYYASWAKGRFTISRDNSKNTVYLQMNSLRAEDTATYFCARGGWTGTSHSNIWGQGTLVTVSSGGGSGGGSEVQLVESGGGLVQPGGSLRLSCAASGFSFSSSYWICWVRQAPGKCLEWVGCVFTGDGTTYYASWAKGRFTISRDNSKNTVYLQMNSLRAEDTATYFCARPVSVYYYGMDLWGQGTLVTVSS"}},
  "key": {"[1]": {"target": "T1, human PD-L1 expressed on cells (CHO-PD-L1, HCC1954, HCC827) (human, UniProt Q9NZQ7 19-290)", "T1 construct": "whole, on cells; also called hPD-L1; PD-L1 expressing cells", "test": "flow cytometry, CHO-PD-L1 cells"}, "[2]": {"target": "T1, human PD-L1 expressed on cells …", "test": "cell-based or functional assay"}, "[3]": {"target": "T2, Fc-tagged human PD-L1 extracellular domain (SinoBiological, cat. 10084-H02H) (human, UniProt Q9NZQ7 19-238)", "T2 construct": "extracellular domain; also called hPD-L1; not shown: Fc tag of the bought protein", "test": "SPR, captured Fc-PD-L1 ECD, scFv analyte, kinetic"}, "[4]": {"target": "T2, Fc-tagged human PD-L1 extracellular …", "test": "SPR, alanine mutants of 33-03-G02"}, "[5]": {"target": "T2, Fc-tagged human PD-L1 extracellular …", "test": "SPR, captured Fc-PD-L1 ECD, kinetic"}, "[6]": {"target": "T3, recombinant human CD3E ECD (SinoBiological, cat. 10977-H08H) (human, UniProt P07766 23-126)", "T3 construct": "extracellular domain; bought protein; also called CD3s", "T3 sequence (P07766 23-126)": "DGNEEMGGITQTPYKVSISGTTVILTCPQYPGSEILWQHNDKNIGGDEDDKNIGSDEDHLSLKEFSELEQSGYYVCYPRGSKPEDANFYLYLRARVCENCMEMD", "test": "SPR, immobilised CD3e ECD, two-state model (kd1); kd1, first step of the two-state fit"}, "[7]": {"target": "T4, recombinant human Her2 ECD (SinoBiological, cat. 10004-HCCH) (human, UniProt P04626 23-652)", "T4 construct": "extracellular domain; bought protein", "test": "SPR, immobilised Her2 ECD"}, "[8]": {"target": "T5, recombinant human IL-23R (custom-made by Trenzyme) (human, UniProt Q5VWK5 24-355)", "T5 sequence (looked up)": "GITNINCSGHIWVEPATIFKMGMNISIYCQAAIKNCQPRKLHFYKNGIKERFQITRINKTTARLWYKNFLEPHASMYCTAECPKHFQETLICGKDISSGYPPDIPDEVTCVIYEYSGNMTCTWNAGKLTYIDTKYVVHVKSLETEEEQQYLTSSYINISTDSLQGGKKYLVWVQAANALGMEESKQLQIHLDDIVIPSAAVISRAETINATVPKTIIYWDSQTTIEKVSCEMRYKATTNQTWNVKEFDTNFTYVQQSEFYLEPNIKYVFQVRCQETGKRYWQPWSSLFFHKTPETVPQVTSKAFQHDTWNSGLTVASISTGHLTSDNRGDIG", "test": "SPR, immobilised IL-23R"}, "[9]": {"target": "T1, human PD-L1 expressed on cells …", "test": "flow cytometry, inhibition of biotinylated PD-1 binding to HCC1954 cells"}, "[10]": {"target": "T3, recombinant human CD3E ECD …", "test": "SPR, immobilised CD3e ECD, two-state model; overall KD of the two-state fit"}, "[11]": {"target": "CD3e on Jurkat PD-1 NFAT reporter T cells or on T cells of human PBMCs (human, UniProt P07766 23-207)", "test": "cell-based or functional assay"}, "human serum albumin": {"target": "T6, human serum albumin (human, UniProt P02768 25-609)", "T6 construct": "also called HSA; human SA", "test": "SPR, immobilised HSA, pH 5.5"}, "[12]": {"target": "T1, human PD-L1 expressed on cells …", "test": "flow cytometry, inhibition of biotinylated PD-1 binding to HCC827 cells"}, "[13]": {"target": "T3, recombinant human CD3E ECD …", "test": "SPR, immobilised CD3e ECD, two-state model"}, "[14]": {"target": "T2, Fc-tagged human PD-L1 extracellular …", "test": "SPR, captured Fc-PD-L1 ECD, steady state"}, "mouse serum albumin": {"target": "T7, mouse serum albumin (mouse, UniProt P07724 25-608)", "T7 construct": "also called MSA; mouse SA", "T7 sequence (P07724 25-608 limits assumed)": "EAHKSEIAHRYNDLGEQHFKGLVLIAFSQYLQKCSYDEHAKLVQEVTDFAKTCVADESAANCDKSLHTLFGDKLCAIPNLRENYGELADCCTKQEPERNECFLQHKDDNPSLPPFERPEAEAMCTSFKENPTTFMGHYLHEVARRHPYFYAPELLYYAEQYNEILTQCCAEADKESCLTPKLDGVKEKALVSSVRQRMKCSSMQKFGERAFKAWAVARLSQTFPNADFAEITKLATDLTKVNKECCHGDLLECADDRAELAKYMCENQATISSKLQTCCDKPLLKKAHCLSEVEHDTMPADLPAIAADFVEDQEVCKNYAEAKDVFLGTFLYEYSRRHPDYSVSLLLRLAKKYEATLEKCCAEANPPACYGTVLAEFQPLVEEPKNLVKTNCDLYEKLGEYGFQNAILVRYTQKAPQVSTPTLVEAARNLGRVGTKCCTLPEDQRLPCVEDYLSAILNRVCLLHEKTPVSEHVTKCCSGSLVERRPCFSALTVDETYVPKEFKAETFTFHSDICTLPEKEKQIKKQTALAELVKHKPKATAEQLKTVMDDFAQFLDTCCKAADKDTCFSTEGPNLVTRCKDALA", "test": "SPR, immobilised MSA, pH 5.5"}, "[15]": {"target": "T3, recombinant human CD3E ECD …", "test": "SPR, immobilised CD3e ECD, two-state model (ka1); ka1, first step of the two-state fit"}},
  "note": "Positions count from the first letter of the chain named. Names and notes keep the numbering of the source.",
  "data": [
    {"binder": "B1", "values": [
      {"measurement": "EC50", "setting": "[1]", "result": 0.0055, "unit": "mg/L"},
      {"measurement": "IC50, neutralization of PD-L1 in NF-AT potency assay", "setting": "[2]", "result": 0.0204, "unit": "mg/L"},
      {"measurement": "Kd", "setting": "[3]", "result": 0.0781, "unit": "nM"},
      {"measurement": "koff", "setting": "[3]", "result": 0.000139, "unit": "s⁻¹"},
      {"measurement": "kon", "setting": "[3]", "result": "1.78e+06", "unit": "M⁻¹ s⁻¹"}
    ]},
    {"binder": "B2", "values": [
      {"measurement": "EC50", "setting": "[1]", "result": 51.2, "unit": "mg/L"},
      {"measurement": "IC50, neutralization of PD-L1 in NF-AT potency assay", "setting": "[2]", "result": 1.28, "unit": "mg/L"},
      {"measurement": "fold reduction of affinity vs the original domain", "setting": "[4]", "result": "> 100", "unit": "fold"},
      {"measurement": "Kd", "setting": "[3]", "result": 16.5, "unit": "nM"},
      {"measurement": "koff", "setting": "[3]", "result": 0.0328, "unit": "s⁻¹"},
      {"measurement": "kon", "setting": "[3]", "result": "1.99e+06", "unit": "M⁻¹ s⁻¹"}
    ]},
    {"binder": "B3", "values": [
      {"measurement": "EC50", "setting": "[1]", "result": 333, "unit": "mg/L"},
      {"measurement": "IC50, neutralization of PD-L1 in NF-AT potency assay", "setting": "[2]", "result": 0.828, "unit": "mg/L"},
      {"measurement": "fold reduction of affinity vs the original domain", "setting": "[4]", "result": "> 100", "unit": "fold"},
      {"measurement": "Kd", "setting": "[3]", "result": 12.2, "unit": "nM"},
      {"measurement": "koff", "setting": "[3]", "result": 0.0205, "unit": "s⁻¹"},
      {"measurement": "kon", "setting": "[3]", "result": "1.67e+06", "unit": "M⁻¹ s⁻¹"}
    ]},
    {"binder": "B4", "values": [
      {"measurement": "Kd", "setting": "[5]", "result": 14.3, "unit": "nM"},
      {"measurement": "koff", "setting": "[5]", "result": 0.000345, "unit": "s⁻¹"},
      {"measurement": "kon", "setting": "[5]", "result": 24100, "unit": "M⁻¹ s⁻¹"},
      {"measurement": "koff", "setting": "[6]", "result": 0.00752, "unit": "s⁻¹"},
      {"measurement": "binding result", "setting": "[7]", "result": "no binding (tested: 90 nM highest concentration)"},
      {"measurement": "Kd", "setting": "[8]", "result": 0.848, "unit": "nM"},
      {"measurement": "koff", "setting": "[8]", "result": 0.000388, "unit": "s⁻¹"},
      {"measurement": "kon", "setting": "[8]", "result": 458000, "unit": "M⁻¹ s⁻¹"},
      {"measurement": "IC50", "setting": "[9]", "result": 51.9, "unit": "mg/L"},
      {"measurement": "Kd", "setting": "[10]", "result": 18.3, "unit": "nM"},
      {"measurement": "IC50, NFAT reporter, CHO-PD-L1 (A2 clone) cells", "setting": "[11]", "result": 31.5, "unit": "nM"},
      {"measurement": "IC50, NFAT reporter, HCC1954 cells", "setting": "[11]", "result": 95.4, "unit": "nM"},
      {"measurement": "rel. max. activation vs PRO1497, NFAT reporter, HCC1954 cells", "setting": "[11]", "result": 28, "unit": "%"},
      {"measurement": "rel. max. activation vs PRO1497 on HCC1954, NFAT reporter, CHO-PD-L1 (A2 clone) cells", "setting": "[11]", "result": 60, "unit": "%"},
      {"measurement": "Kd", "setting": "human serum albumin", "result": 0.797, "unit": "nM"},
      {"measurement": "koff", "setting": "human serum albumin", "result": 0.000134, "unit": "s⁻¹"},
      {"measurement": "kon", "setting": "human serum albumin", "result": 168000, "unit": "M⁻¹ s⁻¹"},
      {"measurement": "IC50", "setting": "[12]", "result": 254, "unit": "mg/L"},
      {"measurement": "KD1", "setting": "[13]", "result": 38.2, "unit": "nM"},
      {"measurement": "kd2", "setting": "[13]", "result": 0.00533, "unit": "s⁻¹"},
      {"measurement": "Kd", "setting": "[14]", "result": 380, "unit": "nM"},
      {"measurement": "Kd", "setting": "mouse serum albumin", "result": 17.3, "unit": "nM"},
      {"measurement": "koff", "setting": "mouse serum albumin", "result": 0.00116, "unit": "s⁻¹"},
      {"measurement": "kon", "setting": "mouse serum albumin", "result": 67000, "unit": "M⁻¹ s⁻¹"},
      {"measurement": "kon", "setting": "[15]", "result": 197000, "unit": "M⁻¹ s⁻¹"}
    ]}
  ]
}
